In this assay the target is T1, LCAT (Homo sapiens, UniProt P04180).
T1 sequence (P04180 25-440): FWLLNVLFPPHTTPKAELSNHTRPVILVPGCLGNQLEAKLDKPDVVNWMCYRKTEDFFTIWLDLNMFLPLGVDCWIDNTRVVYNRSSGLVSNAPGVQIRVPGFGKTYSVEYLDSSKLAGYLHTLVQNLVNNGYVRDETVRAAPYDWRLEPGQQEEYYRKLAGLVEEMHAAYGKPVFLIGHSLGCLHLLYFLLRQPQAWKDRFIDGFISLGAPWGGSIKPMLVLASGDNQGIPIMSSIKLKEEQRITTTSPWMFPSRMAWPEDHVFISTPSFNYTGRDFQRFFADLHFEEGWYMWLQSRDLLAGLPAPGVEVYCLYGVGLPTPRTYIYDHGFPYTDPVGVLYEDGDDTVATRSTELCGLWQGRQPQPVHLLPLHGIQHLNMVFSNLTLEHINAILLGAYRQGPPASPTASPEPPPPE
Description: Assay of LCAT activity in plasma with HDL-mimetic substrate. The note with it: rhLCAT in buffer; 2 μL with 100 μL HMS (100 μM DHE), 2 hours. It counts as biochemical.

With “rhLCAT: Recombinant human LCAT purified from the medium of a stably transfected HEK293F cell clone”, the “Slope of activity versus rhLCAT concentration” value was 5 nmol/µg/h.

These data come from PMC3822574 (Analytical biochemistry, 2013).
